Laboratory results: the supplement of paper PMC10567573
± gives the standard deviation.

Experiment: protein stability index of a GFP-peptide fusion (GPS, HEK-293T) (PSI 1-6); higher = more stable
Conditions: c terminus: a fixed tail appended
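Also: 24-mer peptide tiles fused after GFP, lentivirally expressed, FACS-sorted into six equal bins by GFP/DsRed ratio, decoded by Illumina sequencing, PSI is the read-weighted mean bin number.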

Row | Sequence | protein stability index (treatment: DMSO) | protein stability index (treatment: MLN4924 1 uM, 8 h)
1 | KKNSSPPLSLYGQLLWREFFYTAA [CRY1] | 2.42 ± 0.46 | 2.67 ± 0.63
2 | VYRDLKPENILLDRDGHIKLTDFG [PRKX] | 3.07 ± 0.28 | 3.54 ± 0.24
3 | KTILGNAHDNSEELERARELKEKE [ANKRD44] | 5.62 ± 0.16 | 5.51 ± 0.21
4 | RQPAFDTFDGSLFAVFPSLNEEQT [ETS2] | 3.89 ± 0.2 | 4.04 ± 0.31
5 | LSASKDRTMRLWNIEEIDEIPLVI [WDR88] | 2.19 ± 0.21 | 2.39 ± 0.14
6 | LLDAHILEWHDSLFQILSERQDMY [ZNF511] | 2.32 ± 0.4 | 2.17 ± 0.23
7 | LNGLQHLKAKKVWYDMFRDAAAIL [ZMAT5] | 2.63 ± 0.56 | 2.49 ± 0.34
8 | KQCIVAHPVNPPYYIPLVELVPHP [CRYL1] | 2.33 ± 0.17 | 2.47 ± 0.32
9 | LSGTRESLAQGPDAATTDELSSLG [TBC1D10A] | 5.23 ± 0.34 | 4.9 ± 0.24
10 | RVQSVDFMRTDPVCQKLLLDAMNY [KLHL14] | 2.74 ± 0.2 | 2.64 ± 0.22
11 | LERASATLQDLVFDECGITDDQLL [PRAME] | 4.65 ± 0.36 | 4.71 ± 0.35
12 | LVGDSDVGKGEILESLQDGAAESP [RAB40C] | 5.35 ± 0.27 | 5.39 ± 0.3
13 | DDEGDSYSDNPCSCSQSHCCSRYL [SPRY1] | 4.45 ± 0.21 | 4.57 ± 0.23
14 | VLLGEPLVVMAPSPSESSETVLAL [DENND6A] | 2.82 ± 0.36 | 2.52 ± 0.34
15 | RFRFPSPILKVQYHPRDQNKVLVC [RBBP5] | 2.32 ± 0.11 | 2.32 ± 0.21
16 | APLSGPQALMLPPGSFWGLCQVAQ [VENTX] | 2.06 ± 0.28 | 2.27 ± 0.14
17 | RLEREERNQTQVLRQQQDEAYLAS [FAF2] | 4.96 ± 0.21 | 5 ± 0.15
18 | SIVIFCLETLPEFRDEKDYPASTS [KCNA3] | 2.4 ± 0.54 | 2.19 ± 0.45
19 | LLTRKVICKSDAPTGDVLLDEALK [GOLPH3] | 2.51 ± 0.25 | 2.91 ± 0.39
20 | PHAPPFAGGHPAQLGLGRGASTFK [JUNB] | 4.11 ± 0.083 | 4.34 ± 0.066
21 | EQNQEGDAAYRKALDLAREFLPQG [AUH] | 4.42 ± 0.19 | 4.44 ± 0.37
22 | LDNNASASGNATQTESGSEEVSST [C10orf62] | 5.7 ± 0.2 | 5.64 ± 0.15
23 | RVQVQVVERAQQVAVQEQEIARRE [FLOT1] | 5 ± 0.43 | 4.76 ± 0.67

Row | Sequence | protein stability index (treatment: DMSO) | protein stability index (treatment: MLN4924 1 uM, 8 h)
24 | AWFLPMPQKSLFFHHIPSTCQRVN [SLC19A2] | 2.29 ± 0.48 | 2.23 ± 0.075
25 | NTNTLKVPECRLAEDLGNLWENTR [SPOPL] | 3.22 ± 0.26 | 3.41 ± 0.34
26 | LNVATFLDPRYKRLPFLSAFERQQ [ZBED1] | 2.37 ± 0.086 | 2.43 ± 0.42
27 | SVIVLDINDNAPTFQSSVLRVGIP [PCDHGC5] | 2.18 ± 0.11 | 2.21 ± 0.081
28 | PDLLPTDYRKQLQYPNPLPVLSGA [VPS39] | 3.34 ± 0.4 | 3.43 ± 0.14
29 | IRNEQFAIRRFQSMPVRLLGHSPV [CDC25B] | 2.71 ± 0.4 | 2.71 ± 0.21
30 | DITPLMAAANGGHVKIVKLLLAHK [ANKRD17] | 2.27 ± 0.2 | 2.33 ± 0.41
31 | ATTNACEKPIGSCVTNPCGPRSRC [KRT33B] | 3.92 ± 0.17 | 4.14 ± 0.23
32 | ANCIVHRDLKPENILVTSGGTVKL [CDK4] | 3.23 ± 0.15 | 3.5 ± 0.32
33 | ELLCELGRPSMVWLSANPCPHCGD [PRAME] | 2.08 ± 0.043 | 2.28 ± 0.31
34 | QVAFGSLYRDDVLIKPSRVVAILA [GMCL1] | 2.38 ± 0.62 | 2.46 ± 0.48
35 | FQGSQGRAYLFNSVVNVGCGPAEE [YPEL3] | 2.57 ± 0.27 | 3.22 ± 0.1
36 | IEVFRRKRKMHLVFEYCDHTLLNE [CDKL4] | 2.54 ± 0.98 | 2.33 ± 0.14
37 | NSRRNINYRSFEPILRLLPQGISP [ZER1] | 2.3 ± 0.2 | 2.54 ± 0.17
38 | FSVLMEKLCKKGLAATTSMAYAKL [FANCE] | 3.19 ± 0.73 | 2.75 ± 0.56
39 | MQDYVRTGTYQRAILQNHTDFKDK [CARM1] | 3.92 ± 0.32 | 4.18 ± 0.29
40 | EESRFCDAHLVLDGEEIPVQKNIL [GAN] | 4.73 ± 0.22 | 4.68 ± 0.073
41 | ARLLCRLQAFGETLLLELEQDSGV [ADAMTS4] | 2.66 ± 1.3 | 2.73 ± 0.29
42 | VGYGDMHPVTIGGKIVGSLCAIAG [KCNA3] | 2.67 ± 0.11 | 2.26 ± 0.35
43 | PLELMRTKLQAQHVSYRELGACVR [SLC25A39] | 2.67 ± 0.24 | 2.92 ± 0.16
44 | DLIESDPDAWCDLSKFDLPEEPSA [MYBL2] | 5.01 ± 0.35 | 5.02 ± 0.17
45 | NMSLTALREKLLEAEQSLRNLEDI [TEKT4] | 3.29 ± 0.47 | 3.43 ± 0.46
46 | LRWERAWFPPAIMGVVSLVFLIIY [ARL6IP1] | 3.17 ± 0.1 | 3.08 ± 0.31

Row | Sequence | protein stability index (treatment: DMSO) | protein stability index (treatment: MLN4924 1 uM, 8 h)
47 | QLRGQLQDLDSRLRAGSSEFDSEH [RASAL3] | 4.71 ± 0.41 | 4.9 ± 0.46
48 | GIQLLIVEYKDIASIHWDWKIALL [SLC35F2] | 2.58 ± 0.61 | 2.69 ± 0.78
49 | LTRLRTASGHEPGGSAVCASRVKL [PLEKHN1] | 3.63 ± 0.17 | 3.61 ± 0.28
50 | KQEENDVVEKLNLFLDLLQSYKDL [SNX8] | 1.95 ± 0.29 | 2.12 ± 0.31
51 | FWSVMFFLMLINLGLGSMIGTMAG [SLC6A17] | 3.2 ± 0.55 | 3.49 ± 0.57
52 | LLRPKYRAPQGCSGVDECARQEGL [PBXIP1] | 3.56 ± 0.23 | 3.65 ± 0.37
53 | KSTMDAISAEGFTDIDIDTLCAVL [BTBD1] | 2.21 ± 0.22 | 2.33 ± 0.3
54 | VKYIVERTMLDFPQHVSSDKEVRA [NLN] | 2.82 ± 0.36 | 2.69 ± 0.25
55 | QLQHDFPRALIFSTDDFFFREDGA [N4BP2L1] | 3.09 ± 0.24 | 3.08 ± 0.47
56 | VRTLEGVFQHHQYLSPLERKRLAR [VENTX] | 3.23 ± 0.23 | 3.54 ± 0.47
57 | VQRTQSVPVRRPARRRQSAGPWPR [RASAL3] | 4.55 ± 0.26 | 4.48 ± 0.096
58 | NKKHGEAEKKKPKTQIVCKHFLEA [ZC3H15] | 4.09 ± 0.32 | 4.14 ± 0.31
59 | VQLIDDFKISGMNGIHVCMVFEVL [SRPK2] | 2.73 ± 0.62 | 2.71 ± 0.32
60 | CVQCKMPVCYQCLEEGKHSSHEVK [TRIM9] | 4.08 ± 0.44 | 4.19 ± 0.45
61 | MRKSGAMKKGGIFSAEFLKVFIPS [BNIP3L] | 2.38 ± 0.3 | 2.26 ± 0.21
62 | LPISTVREVALLRRLEAFEHPNVV [CDK4] | 2.62 ± 0.21 | 2.71 ± 0.45
63 | AFPYQYPPPPHPYNPHPGFPELGY [DVL3] | 2.35 ± 0.31 | 2.5 ± 0.35
64 | CVNMDRSFACQCPEGHVLRSDGKT [MATN2] | 3.92 ± 0.21 | 4.22 ± 0.73
65 | MDEKVFTKELDQWIEQLNECKQLS [PPP2CA] | 4.15 ± 0.17 | 4.15 ± 0.16
66 | TIEELQQKILCSKSENARLVVQID [KRT33B] | 3.38 ± 0.19 | 3.28 ± 0.53
67 | DTGEEEEGGDESDLSSESSIKKKF [EHMT1] | 5.46 ± 0.32 | 5.3 ± 0.12
68 | NSKPCISLNGPLSTSRHVMAPVMA [ADAMTS4] | 2.83 ± 0.39 | 3.12 ± 0.19
69 | AEDLGNLWENTRFTDCSFFVRGQE [SPOPL] | 3.69 ± 0.32 | 3.74 ± 0.24

Row | Sequence | protein stability index (treatment: DMSO) | protein stability index (treatment: MLN4924 1 uM, 8 h)
70 | PSGSLENGTKADGKDAKTTNGHGG [TRIM29] | 5.26 ± 0.45 | 5.58 ± 0.35
71 | HQKLEREARICRLLKHSNIVRLHD [CAMK2B] | 2.58 ± 0.17 | 2.66 ± 0.43
72 | EEVKTPEEEMRSHYVAQTGILWLL [GAGE1] | 2.11 ± 0.31 | 2.44 ± 0.49
73 | SILKAMGKTKKDYQEASNLEQFVT [NECAB1] | 2.89 ± 0.41 | 3.04 ± 0.33
74 | FDGTAHLSSVEAYNIRTDSWTTVT [KLHL12] | 2.58 ± 0.38 | 2.62 ± 0.52
75 | KDDKDFTGTVHRIDNTTVIYNSNI [KCNA1] | 4.29 ± 0.2 | 4.37 ± 0.2
76 | MSSENCFVAENSSLHPESGQENDA [CD69] | 5.71 ± 0.19 | 5.54 ± 0.096
77 | YRGTLKRQPAFDTFDGSLFAVFPS [ETS2] | 2.31 ± 0.42 | 2.08 ± 0.14
78 | ESCEEKNQLILTASADRTVIVWDG [WDR41] | 4.01 ± 0.085 | 3.79 ± 0.1
79 | EAGAMTFHYIIEQGVCYLVLCEAA [SEC22B] | 3.08 ± 0.23 | 3.01 ± 0.33
80 | HPVLHKEEKQHLERLNKEYQEIFQ [TRIM43] | 3.9 ± 0.47 | 4.06 ± 0.4
81 | WVTFQVLLYTSLPDFCHKFLPGYV [DHCR7] | 3.4 ± 0.055 | 3.01 ± 0.91
82 | ERDIEIGFLPWLMNEVEKTMEYSM [RSPH3] | 2.41 ± 0.46 | 2.42 ± 0.18
83 | PYKREEEALEERRLSRGEIPTLQR [PKD2L1] | 4.76 ± 0.31 | 4.82 ± 0.27
84 | KLVHFLLLKYRAREPVTKAEMLGS [MAGEA6] | 2.81 ± 0.48 | 2.78 ± 1.3
85 | DPLRSGTVLVSVTVFDANDNAPVF [PCDHGA10] | 2.73 ± 0.42 | 2.82 ± 0.6
86 | FSGSLEPVACGSVLSEGSPLTEQE [SRPK2] | 5.23 ± 0.17 | 5.46 ± 0.16
87 | GDSHYEIEIVHISTVQILTEGFPP [ZFYVE21] | 2.71 ± 0.8 | 2.85 ± 0.78
88 | ADIPSVAFSSRLGGSRGAPGLLMA [DCAF4] | 2.83 ± 0.2 | 2.78 ± 0.51
89 | KAEECDTITLNCPRNSDMKNQGEE [EDARADD] | 5.62 ± 0.32 | 5.51 ± 0.31
